Results from US20220098591.

Columns and labels:
[1] = target: T1, VEGF-A121 (Homo sapiens) (UniProt P15692); settings: all G 2'-F; A,C,U 2'-OMe; Sp3 (1,3-propanediol) joins the two parts (position 9); 5' C6NH2; 3' idT; direct TR-FRET, RT
T1 sequence: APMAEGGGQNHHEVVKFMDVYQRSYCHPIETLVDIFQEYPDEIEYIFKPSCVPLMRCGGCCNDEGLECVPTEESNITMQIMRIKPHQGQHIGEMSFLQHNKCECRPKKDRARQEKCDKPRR

[2] = system: T2, VEGF-A165 (Homo sapiens); settings: all G 2'-F; A,C,U 2'-OMe; Sp3 (1,3-propanediol) joins the two parts (position 9); 5' C6NH2; 3' idT; direct TR-FRET, RT
T2 sequence: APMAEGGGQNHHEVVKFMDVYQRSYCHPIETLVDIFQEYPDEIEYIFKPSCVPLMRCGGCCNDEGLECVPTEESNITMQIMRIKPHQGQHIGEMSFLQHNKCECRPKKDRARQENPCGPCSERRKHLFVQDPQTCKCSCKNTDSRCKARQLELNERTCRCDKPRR

## AGGCCGCCCCGCGCGGAGGGGUUUCAUUAUCCCGUUUGGCGGCUU [Aptamer 47]
[1]
  Kd: 11 nM
[2]
  Kd: 2.1 nM
